Data from patent US20140024594A1.

Molecular target: GFP-MG53 (mouse) (UniProt Q1XH17)
Assay: cell-based or functional assay

Chain of UniProt Q1XH17 (Q1XH17 whole entry): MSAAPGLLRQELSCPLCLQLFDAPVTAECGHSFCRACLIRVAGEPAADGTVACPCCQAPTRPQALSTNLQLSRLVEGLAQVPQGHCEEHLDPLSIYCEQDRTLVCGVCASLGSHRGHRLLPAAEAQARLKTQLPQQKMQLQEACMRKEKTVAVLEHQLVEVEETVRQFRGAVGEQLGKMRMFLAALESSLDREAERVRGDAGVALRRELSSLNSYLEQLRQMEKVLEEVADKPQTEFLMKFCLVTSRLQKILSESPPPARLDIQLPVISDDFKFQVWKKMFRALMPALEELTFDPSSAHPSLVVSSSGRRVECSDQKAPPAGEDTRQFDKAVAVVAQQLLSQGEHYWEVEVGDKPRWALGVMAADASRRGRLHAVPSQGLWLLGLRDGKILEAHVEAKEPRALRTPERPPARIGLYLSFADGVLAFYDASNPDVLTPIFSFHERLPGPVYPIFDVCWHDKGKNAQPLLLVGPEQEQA

- reduction in the appearance of filapodia-like structures: 82%
Substance: caveolin-3 overexpressed from pcDNA-Cav-3
